Three molecules from patent US20240324599A1, “PESTICIDAL ENZYMES FOR USE ON NEMATODES, INSECTS, AND MOLLUSKS” (priority 2023, published 2024) can be followed below.

Common to all, as to assay type: in vivo
In one assay the test system is corn. As to the kind of experiment: Greenhouse trial: Rhizopus oryzae Esterase corn seed treatment, plant height. The method, then:
Rhizopus oryzae Esterase (carboxylesterase, SEQ ID NO:253) was coated onto 6049 V2 hybrid corn seeds. A water only control treatment without esterase enzyme was also created. The seed treated with esterase and control seed was planted in replicated greenhouse trials on promix soil with a fluctuating day/night temperature of 78° F./75° F., and 13 hours of light daily. Plant heights were measured on day 10 for each plant emerged from the soil.

Assay [1] concerns Fall armyworm (Spodoptera frugiperda). As to the kind of experiment: Diet-surface overlay (DSO) bioassay. Conditions: Table 46. The method, then: Diet-surface overlay bioassays are conducted with artificial diet mixes without antibiotics in 1.5 cm^2 cell bioassay trays(s). Artificial diets are commercially available from Southland Products Inc. Diets were prepared by dispersing 0.5 mL of molten diet to each 1.5 cm^2 cell. After solidification, 0.1 mL enzyme treatments were dispersed on top of diet in each cell and the tray was gently rocked in an orbital shaker to spread the liquid uniformly over the diet surface. Trays were placed under clean airflow until the surface of each cell was uniformly dried. One or two 16-cell sections were used per treatment (the number in larvae treated was 16 or 32).
One healthy first instar larva was placed into each treatment cell, each 16-cell section was covered with a re-sealable lid and incubated at 27° C. and light-dark period of 16:8 hrs. After 7 days, and according to the species, the number of individuals in the following developmental categories was recorded.
Negative/untreated controls were treated with filtered water and positive controls were treated with lethal doses of Bacillus thuringiensis subsp. Kurstaki (Btk) spores at 1000 ppm.

The test system of assay [2] is Garden snails (Cornu aspersum). As to the kind of experiment: Antifeedant and molluscicide bioassay (artificial diet): consumption, survival, weight gain. Conditions: n = 12, 12 days. The method, then:
Two-week old garden snails (Cornu aspersum) and full-size black gloss snails (Zonitoides nitidus) were maintained in a semi-darkened tank at 68-70° F. at high humidity, provided with a wet sponge in a petri dish. Snails were transferred to fresh tank every 2-3 days, and they were feed ad libitum with cucumber slices supplemented with calcium carbonate tablets. Individuals were reared in the laboratory for at least a week to fully acclimate to laboratory conditions prior to testing. The individuals ranged between 3 weeks to 2 months old at the time of bioassay.
Filter-sterilized recombinant enzymes including proteases and lipases were prepared as indicated in Example 25. Corresponding controls (e.g., buffer, fermentation of non-recombinant strain, water) were be prepared accordingly. Enzymes were dried by mixing them with Polyvinylpyrrolidone K30 (Thermo Sci Chem, Cat #227545000) at a ratio of 60 mg PVP per mL of enzymes, dispersed on a petri dish and allowed to dry in a bio-safety hood for 24-48 hours.
The treatments were prepared by mixing 0.4 g of dry enzyme and 1 gram of artificial diet mix. The artificial diet mix consisted of flour supplemented with 30 mg sucrose per gram of flour. Control diet contained 0.4 g of PVP and 1 g of artificial diet mix.
12 snails were randomly assigned to each treatment, labeled with permanent marker on the top of the shell for identification, and their weight (mg) was recorded before treatment. Then snails were transferred to dry plastic containers containing two petri dishes. Humidity was maintained with a folded and soaked light duty tissue paper in one petri dish. 1 g of treatment was provided as a thin layer on the other petri dish and was replaced every other day. At the time of treatment replacement, treatment consumption, weight, and mortality were recorded.

Another assay relates to soybean. As to the kind of experiment: Field trial: Geobacillus stearothermophilus esterase soybean seed treatment, yield. Conditions: text to Table 58; 0.5 fl oz/unit. The text has this:
0.5 fl oz/unit of Esterase (carboxylesterase) from Geobacillus/Bacillus stearothermophilus (SEQ ID NO:252) was coated onto soybean seeds treated with Evergol Energy (prothioconazole, metalaxyl, and penflufen fungicides) at 1 fl oz/cwt, Alias 4F (imidacloprid, insecticide) at 1.25 fl oz/unit, Sensient Red (colorant) at 0.5 fl oz/cwt, and Seedwork 4037L polymer at 1.5 fl oz/cwt. A control treatment without esterase enzyme was also created. The seed treated with esterase and control seed was planted in replicated trials distributed across 6 replicated plots with 4 replicates of 60 ft2 each at each site.

B1: Rhizopus oryzae Esterase (protein, listed as Rhizopus oryzae)
chain: SDGGKVVAATTAQIQEFTKYAGIAATAYCRSVVPGNKWDCVQCQKWVPDGKIITTFTSLLSDTNGYVLRSDKQKTIYLVFRGTNSFRSAITDIVFNFSDYKPVKGAKVHAGFLSSYEQVVNDYFPVVQEQLTANPTYKVIVTGHSLGGAQALLAGMDLYQREPRLSPKNLSIFTVGGPRVGNPTFAYYVESTGIPFQRTAHKRDIVPHVPPQSFGFLHPGVESWIKSGTSNVQICTSEIETKDCSNSIVPFTSILDHLSYFDINEGSCL
modifications: Rhizopus cf. oryzae
For the molecule B1, the “Height as % of Control” value in the assay with corn (Table 60, corn seed treatment 0.5 fl oz/unit, plant height on day 10, water control 100%) was determined as 103.7%. The “growth rate of corn, in words” value with corn (text to Table 60) was “increase the growth rate”.

B2: PpII Lipase: free lipase from porcine pancreas Type II (PpII) (protein, UniProt P00591 1-450, looked up)
Pancreatic triacylglycerol …: SEVCFPRLGCFSDDAPWAGIVQRPLKILPWSPKDVDTRFLLYTNQNQNNYQELVADPSTITNSNFRMDRKTRFIIHGFIDKGEEDWLSNICKNLFKVESVNCICVDWKGGSRTGYTQASQNIRIVGAEVAYFVEVLKSSLGYSPSNVHVIGHSLGSHAAGEAGRRTNGTIERITGLDPAEPCFQGTPELVRLDPSDAKFVDVIHTDAAPIIPNLGFGMSQTVGHLDFFPNGGKQMPGCQKNILSQIVDIDGIWEGTRDFVACNHLRSYKYYADSILNPDGFAGFPCDSYNVFTANKCFPCPSEGCPQMGHYADRFPGKTNGVSQVFYLNTGDASNFARWRYKVSVTLSGKKVTGHILVSLFGNEGNSRQYEIYKGTLQPDNTHSDEFDSDVEVGDLQKVKFIWYNNNVINPTLPRVGASKITVERNDGKVYDFCSQETVREEVLLTLNPC
For the molecule B2, the “Dead Larva” value in assay [1] (individuals of n = 32 after 7 days, U/mL diet: Bc 3.8, Pf 5.2, PpII 0.4, Rm 2.8, Lipase nd, water 2) is on record as 0. In assay [1] (n = 32, doses as E92, water 0), the “Larva Stage I” value came to 2, the “Larva Stage II” value is given as 5 and the “Larva Stage III” value came out at 15. Moreover, the “Larva Stage IV” value in assay [1] (n = 32, doses as E92, water 30) is 10. Also, in assay [2] (Table 62, lipases, garden snail, control diet 0), the “Dead Snails” value worked out at 0. In addition, the Diet consumption in assay [2] (Table 62, lipases, garden snail, control diet 1.16) is reported as 0.82 gr. Also, in assay [2] (text to Table 62, lipases), the “food consumption, in words” value was “consistent reduction in food consumption”.

B3: Geobacillus stearothermophilus (a.k.a B. Stearothermophilus) Esterase (protein, listed as Bacillus stearothermophilus, listed as Geobacillus stearothermophilus)
chain: MKIVPPKPFFFEAGERAVLLLHGFTGNSADVRMLGRFLESKGYTCHAPIYKGHGVPPEELVHTGPDDWWQDVMNGYEFLKNKGYEKIAVAGLSLGGVFSLKLGYTVPIEGIVTMCAPMYIKSEETMYEGVLEYAREYKKREGKSEEQIEQEMEKFKQTPMKTLKALQELIADVRDHLDLIYAPTFVVQARHDEMINPDSANIIYNEIESPVKQIKWYEQSGHVITLDQEKDQLHEDIYAFLESLDW
Take B3: the “yield versus base seed treatment package, in words” value in the assay with soybean is on record as “increased the yield”.
